Measured values reported in article PMC7262597 (2020).

B1: Sir2-myc [Drosophila] / GST-Atg8a-WT [Drosophila] (parent complex)
chain 1: MMENYEEIRLGHIRSKDLGNQVPDTTQFYPPTKFDFGAEILASTSTEAEAEAEATATTTEPATSELAGKANGEIKTKTLAAREEQEIGANLEHKTKNPTKSMGEDEDDEEEEEEDDEEEEEDDEEGITGTSNEDEDSSSNCSSSVEPDWKLRWLQREFYTGRVPRQVIASIMPHFATGLAGDTDDSVLWDYLAHLLNEPKRRNKLASVNTFDDVISLVKKSQKIIVLTGAGVSVSCGIPDFRSTNGIYARLAHDFPDLPDPQAMFDINYFKRDPRPFYKFAREIYPGEFQPSPCHRFIKMLETKGKLLRNYTQNIDTLERVAGIQRVIECHGSFSTASCTKCRFKCNADALRADIFAQRIPVCPQCQPNKEQSVDASVAVTEEELRQLVENGIMKPDIVFFGEGLPDEYHTVMATDKDVCDLLIVIGSSLKVRPVAHIPSSIPATVPQILINREQLHHLKFDVELLGDSDVIINQICHRLSDNDDCWRQLCCDESVLTESKELMPPEHSNHHLHHHLLHHRHCSSESERQSQLDTDTQSIKSNSSADYILGSAGTCSDSGFESSTFSCGKRSTAAEAAAIERIKTDILVELNETTALSCDRLGLEGPQTTVESYRHLSIDSSKDSGIEQCDNEATPSYVRPSNLVQETKTVAPSLTPIPQQRGKRQTAAERLQPGTFYSHTNNYSYVFPGAQVFWDNDYSDDDDEEEERSHNRHSDLFGNVGHNYKDDDEDACDLNAVPLSPLLPPSLEAHIVTDIVNGSNEPLPNSSPGQKRTACIIEQQPTPAIETEIPPLKKRRPSEENKQQTQIERSEESPPPGQLAAV
chain 2: MKFQYKEEHAFEKRRAEGDKIRRKYPDRVPVIVEKAPKARIGDLDKKKYLVPSDLTVGQFYFLIRKRIHLRPEDALFFFVNNVIPPTSATMGSLYQEHHEEDYFLYIAYSDENVYGMAKIN

Variants of: B1
Assay: GST pull-down from larval lysate, anti-myc immunoblot, quantified; parent: 1; read off a plot

Variant | ratio to parent
chain 2 Y49A | ~0.21
